Assay results from patent publication EP2452948B1.

Target: Hsp90α in MCF-7 cells (Thr90 phosphorylated, intracellular) (human)
Assay: cell-based or functional assay

- Thr90 phosphorylated Hsp90α level in MCF-7 cells on overexpression of human PP5 (of the control): 0.55
- Thr90 phosphorylated Hsp90α level in MCF-7 cells on siRNA knock-down of human PP5 (of the control): 1.58
Substance: human PP5 in MCF-7 cells (overexpressed from pcDNA3.1/Myc-His(-), or the endogenous protein knocked down by siRNA) (enzyme)
